B1: Apoptotic protease-activating factor 1 (Homo sapiens), O14727 (parent)
chain: MDAKARNCLLQHREALEKDIKTSYIMDHMISDGFLTISEEEKVRNEPTQQQRAAMLIKMILKKDNDSYVSFYNALLHEGYKDLAALLHDGIPVVSSSSGKDSVSGITSYVRTVLCEGGVPQRPVVFVTRKKLVNAIQQKLSKLKGEPGWVTIHGMAGCGKSVLAAEAVRDHSLLEGCFPGGVHWVSVGKQDKSGLLMKLQNLCTRLDQDESFSQRLPLNIEEAKDRLRILMLRKHPRSLLILDDVWDSWVLKAFDSQCQILLTTRDKSVTDSVMGPKYVVPVESSLGKEKGLEILSLFVNMKKADLPEQAHSIIKECKGSPLVVSLIGALLRDFPNRWEYYLKQLQNKQFKRIRKSSSYDYEALDEAMSISVEMLREDIKDYYTDLSILQKDVKVPTKVLCILWDMETEEVEDILQEFVNKSLLFCDRNGKSFRYYLHDLQVDFLTEKNCSQLQDLHKKIITQFQRYHQPHTLSPDQEDCMYWYNFLAYHMASAKMHKELCALMFSLDWIKAKTELVGPAHLIHEFVEYRHILDEKDCAVSENFQEFLSLNGHLLGRQPFPNIVQLGLCEPETSEVYQQAKLQAKQEVDNGMLYLEWINKKNITNLSRLVVRPHTDAVYHACFSEDGQRIASCGADKTLQVFKAETGEKLLEIKAHEDEVLCCAFSTDDRFIATCSVDKKVKIWNSMTGELVHTYDEHSEQVNCCHFTNSSHHLLLATGSSDCFLKLWDLNQKECRNTMFGHTNSVNHCRFSPDDKLLASCSADGTLKLWDATSANERKSINVKQFFLNLEDPQEDMEVIVKCCSWSADGARIMVAAKNKIFLFDIHTSGLLGEIHTGHHSTIQYCDFSPQNHLAVVALSQYCVELWNTDSRSKVADCRGHLSWVHGVMFSPDGSSFLTSSDDQTIRLWETKKVCKNSAVMLKQEVDVVFQENEVMVLAVDHIRRLQLINGRTGQIDYLTEAQVSCCCLSPHLQYIAFGDENGAIEILELVNNRIFQSRFQHKKTVWHIQFTADEKTLISSSDDAEIQVWNWQLDKCIFLRGHQETVKDFRLLKNSRLLSWSFDGTVKVWNIITGNKEKDFVCHQGTVLSCDISHDATKFSSTSADKTAKIWSFDLLLPLHELRGHNGCVRCSAFSVDSTLLATGDDNGEIRIWNVSNGELLHLCAPLSEEGAATHGGWVTDLCFSPDGKMLISAGGYIKWWNVVTGESSQTFYTNGTNLKKIHVSPDFKTYVTVDNLGILYILQTLE
B2: Caspase-9 (Homo sapiens), P55211 (parent)
chain: MDEADRRLLRRCRLRLVEELQVDQLWDALLSRELFRPHMIEDIQRAGSGSRRDQARQLIIDLETRGSQALPLFISCLEDTGQDMLASFLRTNRQAAKLSKPTLENLTPVVLRPEIRKPEVLRPETPRPVDIGSGGFGDVGALESLRGNADLAYILSMEPCGHCLIINNVNFCRESGLRTRTGSNIDCEKLRRRFSSLHFMVEVKGDLTAKKMVLALLELAQQDHGALDCCVVVILSHGCQASHLQFPGAVYGTDGCPVSVEKIVNIFNGTSCPSLGGKPKLFFIQACGGEQKDHGFEVASTSPEDESPGSNPEPDATPFQEGLRTFDQLDAISSLPTPSDIFVSYSTFPGFVSWRDPKSGSWYVETLDDIFEQWAHSEDLQSLLLRVANAVSVKGIYKQMPGCFNFLRKKLFFKTS

Variants of: B1
Conditions: with casp9_human CASP9, P55211

Variant | effect of a mutation on the interaction
D27A | disrupting interaction
E40A | disrupting interaction
S31A | decreasing interaction

Variants of: B2
Conditions: with apaf_human APAF1, O14727

Variant | effect of a mutation on the interaction
R13A | disrupting interaction
R52A | decreasing interaction
R11A | decreasing interaction
R56A | disrupting interaction
